Tested on: MS2 coat protein
Assay: apparent KD of MS2 coat protein; designed switch direction (-1 OFF switch, 1 ON switch): 1; higher = weaker reporter binding
Summary of the method: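 SNAP-549-labelled MS2 coat protein was titrated, doubling from 0.7 or 1.5 nM to 3 µM, over designed RNA switches transcribed on Illumina chips by stalled E. coli RNA polymerase. Runs were done without input, with 200 uM small-molecule ligand, or with an oligonucleotide input. Apparent KD is the per-design median over clusters of curve-fitted normalised fluorescence.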

[1] = input ligand: microRNA oligo, concentration not stated
[2] = Eterna round: R95, input ligand: microRNA oligo, concentration not stated
[3] = Eterna round: R95, input ligand: FMN 200 uM
[4] = Eterna round: R95, input ligand: none

Sequence	apparent KD of MS2 coat protein (input ligand: FMN 200 uM) [nM]	apparent KD of MS2 coat protein [1] [nM]	apparent KD of MS2 coat protein (input ligand: none) [nM]	apparent KD of MS2 coat protein [2] [nM]	apparent KD of MS2 coat protein [3] [nM]	apparent KD of MS2 coat protein [4] [nM]
ACUAGAUCGAAAGAUCUAGAAAACGAGUAACAUGAGGAUCACCCAUGUUCAUGUUGCUCGUCUUAAGCCGAAAGGCG [JL ALT 15] (Eterna round: R96, puzzle: Sensor for hsa-mir-208a)	71.5	38	22.8	–	–	–
AAAAAACAUGAGGAUCACCCAUGUAAAAAAAUGGGAGGAUAUACAAAAACAAAAAAAAAAGUAGAAGGCCUGAAAA [same state 9] (Eterna round: R96, puzzle: Same State 1)	59.2	478	520	–	–	–
UAUGAACAUGAGGAUCACCCAUGUGGAAAGGACACAGGAUAUCAUCUCGCACGUGCGAUAUGAGAAGGGUGAUGGU [Quedorinri] (puzzle: Same State 1)	–	–	–	96.3	–	–
AGAUGUUAAUCAGGAUAUGGGCCCGUGAGGAUCACCCACGGAAAGUAGGUCCAACAGGGCCCAGUCUAGAAGGGAUGGCUAACA [malcolm 80 ssNG2 F5+F7.2] (Eterna round: R96, puzzle: Same State NG 2)	112	19.8	84	–	–	–
GAGCCAGUCCGAGGAUAUUCGUAGUAACACAUGAGGAUCACCCAUGUGGGCUCAGAAGAGCCCUUGGAGAAGGCGGGCUGGCUC [SS-NG2-LRO19] (Eterna round: R96, puzzle: Same State NG 2)	7.41	9.15	12.4	–	–	–
AGUCCAGCCUGAGCUGGACAAAAGCAUGUACAUGAGGAUCACCCAUGUCAUGUACAAGCUUUUUGCUCGAAAUAAUA [Mat - hsa-mir-208a - Mod of JL - D32] (Eterna round: R96, puzzle: Sensor for hsa-mir-208a)	626	14.4	561	–	–	–
GGAGCCGGCACCGAGGAUAUUCAUAUUAAAACAUGAGGAUCACCCAUGUACCGCAGAAGCGGUUGGGAGAAGGCGGAUCGGCUCG [Xeonanis - 23] (Eterna round: R96, puzzle: Same State 2)	31.3	311	534	–	–	–
GUUACAUGAGGAUCACCCAUGUAUGUGUGGGAGUAAGUGUCUUAGGAUAUCUGUUAUUUAAUUUGAGAGAAGGAAGAUUGUUGU [JMF's solution 47] (Eterna round: R96, puzzle: Same State NG 3)	134	71.7	89.1	–	–	–
ACGCAGCUGGGCAAGGAUAUCGGUGGUAAAACAUGAGGAUCACCCAUGUCCGAAGCUCGGACUUCCGAGAAGGUGCCCGGCUGCG [Soinraesar Omei Mod 8] (puzzle: Same State 2)	–	–	–	119	20.1	238
GAGAGAUGAUUAGGAUAUUCGGUGAUAAUGAUAGAAGAAGGAAUUGACAUGAGGAUCACCCAUGUGGGAAUAAUCCAGAGAGAG [Parity 21 - Jieux - Same State NG 1] (Eterna round: R96, puzzle: Same State NG 1)	148	77.5	161	–	–	–
GUUACAUGAGGAUCACCCAUGUAUGUGUGGGAGUAAGUGUCUUAGGAUAUCUAUGAUUUAAUUUCAGAGAAGGAAGAUUGUUGU [JMF's solution 88] (Eterna round: R96, puzzle: Same State NG 3)	119	68	109	–	–	–
AAUAUAUUAAGUGAGGAUAUCGAGGAAAAAACAUGAGGAUCACCCAUGUGGGUAAAAAAAAAAAGUGAGAAGGUGCUUAAUAUAU [Samwise Clockwise 10 - Jieux - Same State 2] (Eterna round: R96, puzzle: Same State 2)	34.9	40.1	69.1	–	–	–
GGUGCCAAUAAAGCCUACAUGAGGAUCACCCAUGUAUGUAGGCAGGAUAUCGUUUGCAAAGCAAACGAGAAGGGCUGAGGCACC [Mat - Same State NG 3 - JL Mod - D52] (Eterna round: R96, puzzle: Same State NG 3)	18.4	39.8	38.8	–	–	–
AACAAUCUAUCUGAGGAUAUCAUGAAAUUAACAUGAGGAUCACCCAUGUGCAGGAAAACUGCAUAUGAGAAGGCAGAUAGAUUGA [salish99_ss2_r3_033] (puzzle: Same State 2)	–	–	–	1110	120	2020
AUUUAACAAGCUUUUUGCUCGUCUUAUAAACAUGAGGAUCACCCAUGUAAUAGCGUGAGAGUAAUUAUUUAAAUAAU [JMF 94] (puzzle: Sensor for hsa-mir-208a)	–	–	–	37.5	16.1	14.7
UUAUUAAUUACAUGAGGAUCACCCAUGUUAAAUAGUCAGAGACAGGAUAUAGAAGUCUCGUUUUACUAGAAGGGUCAUUAUAUG [JR_SSNG3_Sub013] (Eterna round: R96, puzzle: Same State NG 3)	40.7	27.2	35.8	–	–	–

Sequence	apparent KD of MS2 coat protein (input ligand: FMN 200 uM) [nM]	apparent KD of MS2 coat protein [1] [nM]	apparent KD of MS2 coat protein (input ligand: none) [nM]	apparent KD of MS2 coat protein [2] [nM]	apparent KD of MS2 coat protein [3] [nM]	apparent KD of MS2 coat protein [4] [nM]
UUACUCAUGUAAGGAUAUGCAGCCGUUUCGGCUGCAGAAGGUACUAUAAUACAUGAGGAUCACCCAUGUCUUUUUAAUUUUUAC [JL SSNG1 1.28] (Eterna round: R96, puzzle: Same State NG 1)	87.5	24.4	54.2	–	–	–
GUAGCAUACCGAGGAUAUUCAUAUUACAUGAGGAUCACCCAUGUUAUAUAGGCCAAAAGGCCUUGGGAGAAGGCGGAAUGCUAC [Xeonanis - 20 Mod9] (Eterna round: R96, puzzle: Same State NG 2)	10.3	9.73	14.7	–	–	–
CAAGCUUGGGUCGUCCCGCUCGUCUACAAACAUGAGGAUCACCCAUGUAUGCUCUUCGCAUCAAUUCUAUCUCUUGG [Quxeteor] (puzzle: Sensor for hsa-mir-208a)	–	–	–	51.3	51.5	54.1
UGCCUGAGUCGAGGAUAUUAUGGAUCAAUUAAUACAUGAGGAUCACCCAUGUAAUUAAUUUAACAUGAGAAGGCGACUCAGGCU [SSNG2/10-A3] (Eterna round: R96, puzzle: Same State NG 2)	–	7.93	–	–	–	–
AUAUAACAUGAGGAUCACCCAUGUCUCUAAAGUCGAGGAUAUGGGCAGGUUAUAUCCGAACCAGAAGGCGGGUUAU [SS1 Teenbexe 8] (Eterna round: R96, puzzle: Same State 1)	1020	287	554	–	–	–
UCUUGGUUUUUGCUCGUUUUUUGUGUUGAACAUGAGGAUCACCCAUGUAUUAUACGGUCCGGUUUAGUAGUGGUCCG [JMF 79] (puzzle: Sensor for hsa-mir-208a)	–	–	–	16	28.2	31.1
GCGAGCGUACUUGCAACAUGAGGAUCACCCAUGUUAACUGGACAGGAUAUGGUACCGUUUCGGUACCAGAAGGGUUCCUCCAUG [JL SSNG3 3.61] (Eterna round: R96, puzzle: Same State NG 3)	160	134	135	–	–	–
UUAAGCCACGGGCAGGAUAUGUAUUAAAAUACAUGAGGAUCACCCAUGUGCAGGUGUAACACCUGGCAGAAGGGCCAAUCGCGGC [Soondi - 4] (puzzle: Same State 2)	–	–	–	149	29.2	171
AUUAUACAUGAGGAUCACCCAUGUAAUUAAUUAAUUAAGAUCUAGGAUAUCAGCUCGAAUAGAGCUGAGAAGGAGAUCACAUGU [SSNG3/20-C1] (Eterna round: R96, puzzle: Same State NG 3)	–	24.2	–	–	–	–
CGUCCAGCCUGAGCUGGACAAAAGCAUGUACAUGAGGAUCACCCAUGUUCAUGUACAAGCUUUUUGCUCGUCUUAAC [salish99_208a_r3_039] (puzzle: Sensor for hsa-mir-208a)	–	–	–	18.2	660	616
AUAGUUUCCGAAGGAUAUGAUGAGGAUCACCCAUCAGAAGGUUGGCUAUUGGGCUGACAUGAGGAUCACCCAUGUUUCGGUGUU (Eterna round: R96, puzzle: Same State NG 1)	33	29.1	41.4	–	–	–
UGGUACAUGGGAGGAUAUCUCAUGGUGACAUGAGGAUCACCCAUGUAGUUGGAGCCGAAAGGCAGAGAGAAGGCCCAUGUACCU [JL SSNG1 3.77] (Eterna round: R96, puzzle: Same State NG 2)	69.2	65.7	96.3	–	–	–
AGGCUGAGUCGAGGAUAUUAUGGAUCCUCUAAUACAUGAGGAUCACCCAUGUAAUUAAUUAUACAUGAGAAGGUGACUCAGCCA [SSNG2/12-B3] (Eterna round: R96, puzzle: Same State NG 2)	612	129	280	–	–	–
AACAAUCUAUCUGAGGAUAUCAUGAAAUAAACAUGAGGAUCACCCAUGUUCAGGAAAACUGCAUAUGAGAAGGCAGAUAGAUUGA [salish99_ss2_r3_035] (puzzle: Same State 2)	–	–	–	16.2	10.4	15.3
AAACGCAGCAUAUCGCUGCGACAUGAGGAUCACCCAUGUACACAGGAUAUCGCAGCAUACCGCCGCGAGAAGGGUGAUCAAGAC [Anonlete] (Eterna round: R96, puzzle: Same State NG 3)	99.3	16.3	33.9	–	–	–
